Experimental data as given in PMC8618983, “Investigation of the Transport Pathways Associated with Enhanced Brain Delivery of Peptide Drugs by Intranasal Coadministration with Penetratin” (Pharmaceutics, 2021).

Key:
[1] = design: species or system Sprague-Dawley rats; settings: rat, in vivo
Description: We eluted the peptides with a 50 mM NaHCO3 solution and collected the eluted fractions containing the peptides. […] After adding 15 μL of trimethylamine to the Cy7-ester and peptide solution, we gently stirred the mixed solution overnight in the dark at room temperature. We desalted the resulting solution (1.94 mL) using a PD-10 column, eluted it with PBS (pH 7.4) with 0.001% methyl cellulose, and then adjusted its pH to 6.0. We obtained 4.0–6.0 mL of eluted solution and quantified the peptides by BCA assay or HPLC. We used the same analytical conditions for HPLC as previously described. […] We fed male Sprague-Dawley rats (seven weeks old) a nonfluorescent rodent diet (D10001) for a week before intranasal administration to avoid the intrinsic fluorescence of tissues. […] We performed the surgical procedure described by Hirai et al. to close the nasal cavity. Briefly, we incised the neck and cannulated the trachea and esophagus with polyethylene tubing (Hibiki No. 6) to maintain respiration and keep the solutions in the nasal cavity, respectively. We sealed the nasopalatine ducts with medical super glue (Aron Alpha A Sankyo, Daiichi-Sankyo Co., Ltd., Tokyo, Japan) to prevent the drainage of the solutions from the nasal cavity into the oral cavity. […] At the designated time points after administration (15, 30, and 60 or 120 min), we quickly exsanguinated the rats from the postcaval vein and flushed the administered solution by perfusion of PBS (pH 7.4). We decapitated the rats, carefully isolated the whole brain and right and left trigeminal nerves, and washed them with ice-cold PBS (pH 7.4). We placed the brain samples onto a brain matrix (MK-RC-01, Muromachi Kikai Co., Ltd., Tokyo, Japan) and sliced with blades (TCB-100) into twelve 2 mm-thick fractions. We placed the sliced brain and trigeminal nerve samples on a silicon board and mounted them on the stage of an in vivo imaging system (IVIS Lumina XR, Caliper Life sciences, Inc., Waltham, MA, USA). […] We quantified the fluorescence intensity of the region of interest of the images based on their contrast. To calculate the fluorescence intensity derived from Cy7 in the tissues, we subtracted the intrinsic fluorescence of an untreated area from the total intensity.

[2] = in vivo; cited from earlier work
Excerpt: During the permeation through the nasal mucosa, drugs come across microvascular vessels in the lamina propria directed toward the systemic circulation before reaching the brain or cerebrospinal fluid (CSF).

Substance | distribution in the trigeminal nerves [1] | distribution ratio (olfactory bulb/trigeminal nerves) [1] | delivery to the brain by intranasal coadministration with L-penetratin [2]
Cy7-Exendin-4: Exendin-4 labeled with the Cy7 fluorescent dye via Cy7 Mono NHS Ester | high even without L-penetratin | dominantly increased | –
Cy7-insulin: insulin labeled with the Cy7 fluorescent dye via Cy7 Mono NHS Ester | high even without L-penetratin | dominantly increased | –
leptin | – | – | significantly increased
